Laboratory results from paper PMC3227653 (2011).

B1: pepsin-treated A4.2m (VHH)
VHH: QVKLEESGGGLVQAGGSLRLSCAASGRTFNTLSMGWFRQAPGKEREFVCAVSRSGGSTYYADSVKGRFTCSRDNAKNTVYLQMNSLKPEDTAVYYCAAAATKSNTTAYRLSFDYWGQGTQVTVSS
B2: pepsin-treated A26.8m (VHH)
VHH: QVKLEESGGGLVQAGGSLRLSCAASERTFSRYPVAWFRQAPGAEREFVCVISSTGTSTYYADSVKGRFTCSRDNAKVTVYLQMNNLKREDTAVYFCAVNSQRTRLQDPNEYDYWGQGTQVTVSS
B3: pepsin-treated A5.1m (VHH)
VHH: QVKLEESGGGLVQAGGSLRLSCAASGRTFSMYRMGWFRQAPGKEREFVCVITRNGSSTYYADSVKGRFTCSRDNAKNTVYLQMNSLKPEDTALYYCAATSGSSYLDAAHVYDYWGQGTQVTVSS

Biological target: Clostridium difficile toxin A (C. difficile, UniProt P16154 1-2710)
Test: SPR

Q: Which koff does the source give for B1 here?
A: The koff was 0.016 s⁻¹.

Q: Which koff does the source give for B2 here?
A: Its koff is 0.019 s⁻¹.

Q: How did the koff turn out when B3 was run?
A: The koff was 0.013 s⁻¹.
